From paper PMC11997652, “Transcription factors MdEIL1 and MdHY5 integrate ethylene and light signaling to promote chlorophyll degradation in mature apple peels”

T1: MdEIL1 (labelled MdEIN3-HIS in the Fig. 7d figure text);MdHY5 (apple;apple, UniProt D5L144;L0MZN5 1-659;1-164, |)
T1 sequence 1: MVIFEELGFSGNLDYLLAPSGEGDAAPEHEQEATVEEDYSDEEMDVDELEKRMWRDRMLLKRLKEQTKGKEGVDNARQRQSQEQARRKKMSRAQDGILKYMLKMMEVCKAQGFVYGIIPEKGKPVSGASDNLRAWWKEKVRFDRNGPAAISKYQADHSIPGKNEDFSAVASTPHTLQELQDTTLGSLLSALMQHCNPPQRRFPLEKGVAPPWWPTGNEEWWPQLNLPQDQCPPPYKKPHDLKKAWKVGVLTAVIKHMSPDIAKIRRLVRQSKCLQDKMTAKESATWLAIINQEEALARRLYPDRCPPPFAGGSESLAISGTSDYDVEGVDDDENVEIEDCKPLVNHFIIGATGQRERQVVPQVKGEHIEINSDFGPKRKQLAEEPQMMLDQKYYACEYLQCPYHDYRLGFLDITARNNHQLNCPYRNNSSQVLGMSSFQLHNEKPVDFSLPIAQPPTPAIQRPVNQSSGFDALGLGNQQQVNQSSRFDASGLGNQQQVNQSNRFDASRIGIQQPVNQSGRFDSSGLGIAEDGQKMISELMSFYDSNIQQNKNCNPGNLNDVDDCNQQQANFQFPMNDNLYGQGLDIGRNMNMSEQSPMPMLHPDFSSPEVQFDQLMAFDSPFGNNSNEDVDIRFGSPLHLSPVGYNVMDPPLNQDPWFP
T1 sequence 2: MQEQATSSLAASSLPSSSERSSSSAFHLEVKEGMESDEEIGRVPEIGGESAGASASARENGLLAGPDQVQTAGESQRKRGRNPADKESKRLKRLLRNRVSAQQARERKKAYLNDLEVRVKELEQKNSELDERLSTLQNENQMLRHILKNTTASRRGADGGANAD

T2: MdHY5 (apple, UniProt L0MZN5 1-164)
T2 sequence: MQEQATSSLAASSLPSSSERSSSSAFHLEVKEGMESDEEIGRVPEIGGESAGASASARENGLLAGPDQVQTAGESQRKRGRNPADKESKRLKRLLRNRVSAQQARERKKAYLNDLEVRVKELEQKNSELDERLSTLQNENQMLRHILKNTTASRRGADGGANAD

T3: MdEIL1 (labelled MdEIN3-HIS in the Fig. 7d figure text) (apple, UniProt D5L144 1-659)
T3 sequence: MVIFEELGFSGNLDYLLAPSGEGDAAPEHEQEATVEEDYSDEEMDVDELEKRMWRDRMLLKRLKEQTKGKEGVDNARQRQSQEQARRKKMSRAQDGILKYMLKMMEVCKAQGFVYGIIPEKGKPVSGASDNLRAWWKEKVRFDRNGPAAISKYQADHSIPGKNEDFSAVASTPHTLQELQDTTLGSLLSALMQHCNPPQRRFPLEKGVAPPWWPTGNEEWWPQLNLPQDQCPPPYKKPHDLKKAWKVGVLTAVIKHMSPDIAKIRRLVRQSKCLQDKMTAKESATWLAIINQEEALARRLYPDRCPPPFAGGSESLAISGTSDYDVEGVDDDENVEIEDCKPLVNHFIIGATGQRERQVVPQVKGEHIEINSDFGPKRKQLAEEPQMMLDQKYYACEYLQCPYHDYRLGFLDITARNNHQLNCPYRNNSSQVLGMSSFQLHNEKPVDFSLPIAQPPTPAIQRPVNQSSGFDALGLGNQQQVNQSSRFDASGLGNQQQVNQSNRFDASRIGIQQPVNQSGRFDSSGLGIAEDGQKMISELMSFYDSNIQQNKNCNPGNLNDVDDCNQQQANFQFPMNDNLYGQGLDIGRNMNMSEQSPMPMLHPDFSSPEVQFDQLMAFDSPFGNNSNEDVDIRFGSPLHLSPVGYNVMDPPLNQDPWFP


Assays:
[1] = target: T1, MdEIL1 (labelled MdEIN3-HIS in the Fig. …); assay: EMSA; MdEIL1 added to MdHY5 enhances binding; LightShift Chemiluminescent EMSA kit (Thermo); buffer, salt, pH and temperature not stated; cold probe 25x, 50x, 100x; conditions: protein: recombinant;recombinant; tags: His (pET32a fusion);His (pET32a fusion); label: 3' biotin on both strands; blunt
MdHY5 = target: T2, MdHY5; assay: EMSA; LightShift Chemiluminescent EMSA kit (Thermo); buffer, salt, pH and temperature not stated; cold probe 25x, 50x, 100x; conditions: protein: recombinant; tags: His (pET32a fusion); chain copies: 2; label: 3' biotin on both strands; blunt
[2] = target: T1, MdEIL1 (labelled MdEIN3-HIS in the Fig. …); assay: EMSA; MdHY5 added to MdEIL1 enhances binding; LightShift Chemiluminescent EMSA kit (Thermo); buffer, salt, pH and temperature not stated; cold probe 25x, 50x, 100x; conditions: protein: recombinant;recombinant; tags: His (pET32a fusion);His (pET32a fusion); label: 3' biotin on both strands; blunt
[3] = target: T3, MdEIL1 (labelled MdEIN3-HIS in the Fig. …); assay: EMSA; LightShift Chemiluminescent EMSA kit (Thermo); buffer, salt, pH and temperature not stated; cold probe 25x, 50x, 100x; conditions: protein: recombinant; tags: His (pET32a fusion); label: 3' biotin on both strands; blunt
[4] = target: T1, MdEIL1 (labelled MdEIN3-HIS in the Fig. …); assay: EMSA; MdHY5 with MdEIL1 enhances binding; LightShift Chemiluminescent EMSA kit (Thermo); buffer, salt, pH and temperature not stated; cold probe 25x, 50x, 100x; conditions: protein: recombinant;recombinant; tags: His (pET32a fusion);His (pET32a fusion); label: 3' biotin on both strands; blunt

Binder | binding result (MdHY5) | binding result [3] | also measured
MdERF17-G-box3 hot probe (dsDNA) DNA 1: CCGTATGAGGACAAATAACACACGTGCTTCGAAACCCGTCTCTCTG DNA 2: CAGAGAGACGGGTTTCGAAGCACGTGTGTTATTTGTCCTCATACGG | binds |  | binding result [1]: binds
MdERF17-G-box2 hot probe (dsDNA) DNA 1: ATCATATACATATATATATGCACGTTGAAAACTTAGCTCCTTTGTT DNA 2: AACAAAGGAGCTAAGTTTTCAACGTGCATATATATATGTATATGAT | no binding |  | 
MdERF17-TACAT3 hot probe (dsDNA) DNA 1: GGTGAGGTTTGGGTTGAATTTACATAATGAGTCACTCATAGTAAA DNA 2: TTTACTATGAGTGACTCATTATGTAAATTCAACCCAAACCTCACC |  | binds | binding result [2]: binds
MdERF17-G-box1 hot probe (dsDNA) DNA 1: GTGTGTTTTATTGCATCATTCACGTGTCATCTTTGCAAAAAATTAG DNA 2: CTAATTTTTTGCAAAGATGACACGTGAATGATGCAATAAAACACAC | no binding |  | 
MdHY5-TACAT hot probe (dsDNA) DNA 1: GCTTCCCCGTAACCAAGAAATACATGCATTTTCCGTCCAGCACAC DNA 2: GTGTGCTGGACGGAAAATGCATGTATTTCTTGGTTACGGGGAAGC |  | binds | binding result [4]: binds
